# Paper PMC2794159
# Target: MBD4 (methyl-CpG binding domain protein 4) (mouse, UniProt Q9Z2D7 1-554)
# Experiment: EMSA
# Chain of MBD4 (methyl-CpG binding domain protein 4) (Q9Z2D7 whole entry, the tested form may be a part): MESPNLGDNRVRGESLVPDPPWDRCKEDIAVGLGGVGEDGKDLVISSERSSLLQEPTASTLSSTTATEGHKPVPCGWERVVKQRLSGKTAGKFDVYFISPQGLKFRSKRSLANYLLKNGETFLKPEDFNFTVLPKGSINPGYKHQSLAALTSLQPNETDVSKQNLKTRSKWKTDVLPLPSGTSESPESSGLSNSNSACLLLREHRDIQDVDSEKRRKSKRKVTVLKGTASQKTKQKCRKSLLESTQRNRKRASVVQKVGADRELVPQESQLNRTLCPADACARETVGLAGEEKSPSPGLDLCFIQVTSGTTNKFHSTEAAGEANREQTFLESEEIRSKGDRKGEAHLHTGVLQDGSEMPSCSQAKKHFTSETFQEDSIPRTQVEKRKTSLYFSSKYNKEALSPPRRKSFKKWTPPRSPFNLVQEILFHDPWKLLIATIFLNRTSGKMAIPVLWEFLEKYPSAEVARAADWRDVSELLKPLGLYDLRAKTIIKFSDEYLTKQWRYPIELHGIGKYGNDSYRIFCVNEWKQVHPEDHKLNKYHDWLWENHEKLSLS
binder,measurement,value
"GGTCGGGGTAGCGGCTGAATCGCTGCACGCCGTAGGTCACGCG (ssDNA, m5C at position 21 (m5CpG); 3' cgcg phosphorothioate) [m5CpGGFP ssODN alone]",binding result,no binding
